Laboratory results: the RNAGym collection of RNA variant scans (doi:10.1073/pnas.2313332121)

B1: TPR t1 (parent)
chain: GACCAAUCUGCCCUCAGAGCUCGAGAACAUCUUCGGAUGCAGAGGAGGCAGGCUUCGGUGGCGCGAUAGCGCCAACGUCCUCAACCUCCAAUGCAUCCCACCACAUGAUGAUGCCUGAAGAGCCUUGGUUUUUUG

Variants of: B1
Test: polymerase ribozyme fitness, log enrichment relative to wild type (log ratio); higher = more active; in vitro selection for triplet polymerase activity
Outline: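 Each subunit of a heterodimeric triplet polymerase ribozyme was mutagenized into a library by PCR, transcribed, and subjected to one round of in vitro selection, run in triplicate. Libraries were annealed with a biotinylated primer, the partner subunit and triplets, incubated frozen at −7 °C, and extended constructs were gel-excised, captured on streptavidin beads and recovered by RT-PCR. Input and output libraries were sequenced on Illumina, keeping genotypes with ≥10 input reads and ≥1 read per output. Fitness is log base 2 of genotype enrichment divided by wild-type enrichment, from inverse-variance-weighted replicate averages.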

Variant | polymerase ribozyme fitness (log ratio)
G63C U92A C98U | -5.26
G63U G117A | -1.66
C8G C13G G36A U78A A111C | 0.328
G45A G71C C101A C115U G127C | -5.44
C13A U55C G69C G110U | -4.5
U7G G77C C97U U109A | -6.1
C12G C53U G60C C89U C102U C104U | -2.28
A6U C12U C76A C115U | -2.81
U9G G63A U92G C98G C115G G128A | -6.12
A46C U87G A100U | -0.0504
G57A A90C C104A G113C G117C | -6.59
G42C A50U C76G A111U | -6.27
U7C A27G G69C | -2.37
G10C A108C C114G | -5.74
A26G C28U U87C A118U | -2.19
A16G G45A C80G C114U | -5.91
C85A G110A | -2.98
C3G C13A A18G G25U G63A A111C A118G | -6.44
G65A G110A | -5.47
A46C C76G G122A | -1.33
C12U A41C C72G C86A U109A | -7.19

Variant | polymerase ribozyme fitness (log ratio)
C4U U38A G45U C49G G71A | -4.53
A37U A50C G61A G117C U130C | -4.59
C8A C64U C104A G120A | 0.21
C34G C53G C72A C104A | -4.72
G35A G42A G61A U106A U112G A121C G127U G128A | -6.38
C73U C98U | -0.593
C56A A95C U106A C124U | 0.424
G36U C53U A105C | -2.88
A6C C82A C89A | -2.13
C34G C73G U116A A121U | -5.9
C49G A84U G110C | -5.43
C86G C123A | -0.0336
G58A C82U G93U C94U U96C C123U | -3.17
G19A C22A G113C | -4.67
C34A G69U G135U | -0.532
G51U C124G | -1.68
U7C G61A U87G | 0.298
A50U C98U G107A C115A | -5.98
C3G C97G | -5.54
C62A C72G G120U U129G | -3.88
C13U G19A A37G | -2.93

Variant | polymerase ribozyme fitness (log ratio)
G48U C62A G127C | -3.44
A5C G63C A75C C94A G113C G122U | -4.55
G10U A37C C85A | -1.32
G63C A75U | -0.329
U21A C22A A27C C89U C114U A121U | -3.32
G63A G120C | 0.337
G45A U54A C56U G57U U87G A91G G93A | -3.65
G77U G120A | -0.148
G52A G69C | -1.72
U7G U106G G117U | -3.33
C13G U133A | -2.17
U9C G58C C114A G127U | -3.7
G63A C124U | 0.738
C8G C70A U92G | -5.61
C28G U32C C101A | -3.79
C8A G110U | -0.434
G71A U125A | -0.783
C49G G52A C70A U96C | -4.29
A5C U9A C13U A74C G110C C123A | -5.77
G48U G122A | -1.27
U33G G120U | -5.27

Variant | polymerase ribozyme fitness (log ratio)
G110A U133A | -1.59
A18C A83G A105G C115U | -3.42
C49A G60A | -0.214
C11U G61U U96A | -1.65
A26C C49A C98U C114U | -6.14
A50C G52C C73U | -4.07
A6C C11A A18C C73U | -4.87
G45U A74C A108G | -3.25
G63A G128C | -3.34
C12U G39C | -0.515
U78C G113C | -1.53
C12U A43C C72A A90U | -0.685
C64U A84C | 0.992
C13U G36U U92A | -4.57
G42U A91C G117C | -3.63
A84C G93A C101U | -1.17
U14C U132C | -1.36
A2G C8A G63A G110A | -3.11
U21A A41U G60A U96A | -4.01
A6U U78C | 0.144
C73G C124U | 0.25
